Test results published in paper PMC10311867 (Biotechnology for Biofuels and Bioproducts, 2023).
Blank lines part the entries; values can stand above or below the molecule they belong to.

Experiments:
AmRha = target: T1, AmRha (Aspergillus mulundensis, UniProt A0A3D8R006); assay: residual activity on pNPR, […] nm; format: biochemical; conditions: read-out: remaining enzyme activity at 5 mM
T1 construct: gene DSM5745_09107; full-length synthetic gene (2589 bp, 862 aa); native-like purification (ammonium sulphate, DEAE)
T1 sequence (A0A3D8R006 1-862): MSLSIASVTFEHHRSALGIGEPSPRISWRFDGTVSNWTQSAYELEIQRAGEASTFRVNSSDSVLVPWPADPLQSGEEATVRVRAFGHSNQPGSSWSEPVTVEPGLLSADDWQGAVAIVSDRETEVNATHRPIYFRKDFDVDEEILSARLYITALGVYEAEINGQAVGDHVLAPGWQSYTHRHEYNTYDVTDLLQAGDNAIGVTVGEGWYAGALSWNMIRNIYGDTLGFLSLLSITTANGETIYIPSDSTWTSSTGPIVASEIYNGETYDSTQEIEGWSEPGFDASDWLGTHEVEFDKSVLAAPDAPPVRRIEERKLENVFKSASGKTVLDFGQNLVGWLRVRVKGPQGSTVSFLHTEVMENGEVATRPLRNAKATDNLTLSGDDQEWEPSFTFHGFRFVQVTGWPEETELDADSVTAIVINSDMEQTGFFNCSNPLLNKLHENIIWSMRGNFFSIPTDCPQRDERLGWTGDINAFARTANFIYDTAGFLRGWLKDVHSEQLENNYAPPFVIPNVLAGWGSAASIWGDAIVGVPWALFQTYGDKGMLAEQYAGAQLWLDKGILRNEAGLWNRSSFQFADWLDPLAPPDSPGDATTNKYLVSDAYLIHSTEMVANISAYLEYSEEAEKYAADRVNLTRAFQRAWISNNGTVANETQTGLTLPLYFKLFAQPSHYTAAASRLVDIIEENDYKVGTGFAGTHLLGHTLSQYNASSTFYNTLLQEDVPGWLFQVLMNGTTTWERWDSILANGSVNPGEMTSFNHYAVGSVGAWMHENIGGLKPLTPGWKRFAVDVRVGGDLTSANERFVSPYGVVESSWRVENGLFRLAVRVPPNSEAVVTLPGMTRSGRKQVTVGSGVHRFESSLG

purified protein [1] = substrate: COc1ccc(-c2oc3c(CC=C(C)C)c(O[C@@H]4O[C@H](CO)[C@@H](O)[C@H](O)[C@H]4O)cc(O)c3c(=O)c2O[C@@H]2O[C@@H](C)[C@H](O)[C@@H](O)[C@H]2O[C@@H]2O[C@@H](C)[C@H](O)[C@@H](O)[C@H]2O)cc1; assay: purified protein; conditions: hydrolysis of terminal alpha-1,2-rhamnose to icariin; kinetic conditions not stated
purified protein [2] = substrate: C[C@@H]1O[C@@H](Oc2ccc([N+](=O)[O-])cc2)[C@H](O)[C@H](O)[C@H]1O; assay: purified protein; format: biochemical, Aspergillus mulundensis; conditions: pH 5.5, 65 °C, 50 mM sodium phosphate

remaining activity at 5000 µM (AmRha): 49.7%
Molecule: C[C@@H]1OC(O)[C@H](O)[C@H](O)[C@H]1O (stereo partly drawn) [L-rhamnose]

B1: AmRha (Aspergillus mulundensis) (protein)
chain: T1 sequence (A0A3D8R006 1-862)
notes: full-length synthetic gene (2589 bp, 862 aa); native-like purification (ammonium sulphate, DEAE)
Km (purified protein [1]): 6.96 mM
kcat (purified protein [1]): 37.11 s⁻¹
Km (purified protein [2]): 0.30 mM
kcat (purified protein [2]): 900.34 s⁻¹
